In patent US20060269550A1:
Where no end group is shown, it is not given here. The star is where a group is joined. Octanoyl = CCCCCCCC(=O)*

What was measured:
[1] = target: anti-hGhrelin Fab 2291; test: competitive ELISA; competitor at 0.2 µg/ml preincubated with Fab 2291 0.1 µg/ml, OD of Fab bound to BSA-hGhrelin wells
[2] = target: anti-hGhrelin Fab 2291; test: competitive ELISA; competitor at 5 µg/ml preincubated with Fab 2291 0.1 µg/ml, OD of Fab bound to BSA-hGhrelin wells
[3] = target: anti-hGhrelin Fab 2291; test: competitive ELISA; competitor at 1 µg/ml preincubated with Fab 2291 0.1 µg/ml, OD of Fab bound to BSA-hGhrelin wells

Sequence of anti-hGhrelin Fab 2291 (VH, as listed by the source, chain 1 of 2): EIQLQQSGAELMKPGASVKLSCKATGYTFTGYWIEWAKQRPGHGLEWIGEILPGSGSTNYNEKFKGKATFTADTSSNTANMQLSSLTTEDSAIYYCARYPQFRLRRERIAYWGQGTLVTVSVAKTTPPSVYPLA
Sequence of anti-hGhrelin Fab 2291 (VL, as listed by the source, chain 2 of 2): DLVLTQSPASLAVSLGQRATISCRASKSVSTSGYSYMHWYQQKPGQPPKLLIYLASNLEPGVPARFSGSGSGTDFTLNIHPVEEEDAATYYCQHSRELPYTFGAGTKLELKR

| Ave. OD (490 nm) [1] | Ave. OD (490 nm) [2] | Ave. OD (490 nm) [3] | Binder |
| --- | --- | --- | --- |
| 0.633 OD (490 nm) | 0.729 OD (490 nm) | 0.663 OD (490 nm) | GSSFLSPEHQRVQQRKESKKPPAKLQPR [des-acyl-hGhrelin, full-length, non-acylated human ghrelin] |
| 0.607 OD (490 nm) | 0.702 OD (490 nm) | 0.69 OD (490 nm) | GSSFLSPEH(Octanoyl)QRVQQRKESKKPPAKLQPR [hGhrelin-His9-acylated] |
